The values that follow come from IntAct's records for PubMed 29276004.

To fix the notation:
B1: Rho-related BTB domain-containing protein 2 (Homo sapiens), Q9BYZ6-2 (parent)
chain: MQAWRKGPDGPQKTSSDSMSRLMDSDMDYERPNVETIKCVVVGDNAVGKTRLICARACNATLTQYQLLATHVPTVWAIDQYRVCQEVLERSRDVVDDVSVSLRLWDTFGDHHKDRRFAYGRSDVVVLCFSIANPNSLHHVKTMWYPEIKHFCPRAPVILVGCQLDLRYADLEAVNRARRPLARPIKPNEILPPEKGREVAKELGIPYYETSVVAQFGIKDVFDNAIRAALISRRHLQFWKSHLRNVQRPLLQAPFLPPKPPPPIIVVPDPPSSSEECPAHLLEDPLCADVILVLQERVRIFAHKIYLSTSSSKFYDLFLMDLSEGELGGPSEPGGTHPEDHQGHSDQHHHHHHHHHGRDFLLRAASFDVCESVDEAGGSGPAGLRASTSDGILRGNGTGYLPGRGRVLSSWSRAFVSIQEEMAEDPLTYKSRLMVVVKMDSSIQPGPFRAVLKYLYTGELDENERDLMHIAHIAELLEVFDLRMMVANILNNEAFMNQEITKAFHVRRTNRVKECLAKGTFSDVTFILDDGTISAHKPLLISSCDWMAAMFGGPFVESSTREVVFPYTSKSCMRAVLEYLYTGMFTSSPDLDDMKLIILANRLCLPHLVALTEQYTVTGLMEATQMMVDIDGDVLVFLELAQFHCAYQLADWCLHHICTNYNNVCRKFPRDMKAMSPENQEYFEKHRWPPVWYLKEEDHYQRARKEREKEDYLHLKRQPKRRWLFWNSPSSPSSSAASSSSPSSSSAVV

Variants of B1 are the subject of this experiment. The note with it: with cul3_human CUL3, Q13618.
Regarding R483H, the “effect of a mutation on the interaction” value is recorded as “with no effect”.
In the case of A474G, the “effect of a mutation on the interaction” value was “with no effect”.
Regarding R511Q, the “effect of a mutation on the interaction” value is “with no effect”.
